From US20250085298A1 (TRITON SYSTEMS, published 2025)
Where a chain is given by its changes, count along the chain named. One block for each binder: values may come before it.

Assays:
[1] = molecular target: T1, rabbit α-crystallin A (CRYAA), native protein in rabbit intraocular fluid (rabbit, UniProt P02493 1-173, limits assumed); assay: lateral flow sandwich strip, MAB1601-AuNP conjugate with MAB1301 test line; swab of rabbit eye, Arm 3: 3 mm full-thickness laceration, AC/limbus, no confounder
T1 construct: Analyte of the lateral flow assay in rabbit samples; also called Crystallin-αA; αA-Crystallin
T1 sequence (looked up): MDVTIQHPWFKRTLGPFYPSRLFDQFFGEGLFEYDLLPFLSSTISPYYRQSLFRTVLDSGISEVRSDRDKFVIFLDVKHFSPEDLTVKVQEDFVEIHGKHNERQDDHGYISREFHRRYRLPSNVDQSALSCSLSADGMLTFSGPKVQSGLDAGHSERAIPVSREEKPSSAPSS
Experimental: (§1) The expected results were that either one, or two, distinct red lines would form on the readout area of the test strip. The bottom half of the readout area on the nitrocellulose strip was expected to always show a red line (control), while appearance of the second line confirmed a positive result. The results were documented and whole test strip was imaged after removing the top of its plastic casing. The test strips were labelled and shipped on cold packs. For the second sample, 10-30 μL (as much as possible up to 30 μL) of the remaining ocular film was drawn by pipette and deposited in a microcentrifuge tube labeled with identities corresponding to the test strips. To this liquid sample, an equal volume of RNAlater solution was added and the sample was stored at −80° C. until shipment to the client on dry ice. Following sedation, rabbits were euthanized by intravenous barbiturate overdose. Euthasol® was delivered via the marginal ear vein at a concentration of 390 mg/ml, and a dose of 87 mg/kg. Following confirmation of euthanasia, whole corneas with sclera rims were collected and immediately placed in PBS. The medium was then exchanged for freshly made 4% PFA and tissue was fixed at room temperature for 23 hours. The tissue was then embedded in paraffin and shipped for further analysis. […]

[2] = molecular target: T1, rabbit α-crystallin A (CRYAA), native …; assay: lateral flow sandwich strip, MAB1601-AuNP conjugate with MAB1301 test line; swab of rabbit eye, Arm 9: 1 mm full-thickness puncture, peripheral cornea, no confounder
Experimental: as §1

binding result [1]: binds
B1: MAB1601 (Conjugate Ab; target recognition element) (antibody, mouse IgG1, kappa, V domains shown)
VH: EVKLQESGPSLVKPSQTLSLTCSVTGDSITSGYWNWIRKFPGNKLEYMGYISYSGSTYFNPSLKSRISITRDTSKNQYYLQLNSVTTEDTATYYCSTGFAYWGQGTLVTVSA
VL: DIVMSQSPSSLAVSVGEKVIMRCNSSQSLLYSGNRENYLAWYQQKPGQSPNLLIYWASRRASGVPDRFAGGGSGTDFTLTISSVKAEDLAVYYCQHYYNYPLTFGAGTRLELKR
notes: Custom anti-CRYAA monoclonal antibody made in mice against the modified C-terminal CRYAA immunogen; In the assay its amines were coupled to carboxyl gold nanoparticles by EDC/sNHS chemistry; also called conjugate antibody; upstream target recognition element

binding result [2]: binds
B2: MAB1301 (Test Line Ab; test element) (antibody, mouse IgG1, kappa, V domains shown)
VH: EVKLQESGPSLVRPGASVKMSCKASGYTFTSYNMHWVKQTPRQGLEWIGAIYPGNGDTSYNQKFKGKATLTVDKSSSTAYMQLSSLTSEDSAVYFCARVVYYSNSYWYFDVWGTGTTVTVSA
VL: B1 VL with G71S
notes: Custom anti-CRYAA monoclonal antibody made in mice; It was immobilised on the nitrocellulose test line; also called MAB1301 T-line; test-line antibody
